Patent US20220135701A1 (Genentech, published 2022)

T1: human MerTK (human, UniProt Q12866 26-499)
T1 construct: also called HuMER
T1 sequence: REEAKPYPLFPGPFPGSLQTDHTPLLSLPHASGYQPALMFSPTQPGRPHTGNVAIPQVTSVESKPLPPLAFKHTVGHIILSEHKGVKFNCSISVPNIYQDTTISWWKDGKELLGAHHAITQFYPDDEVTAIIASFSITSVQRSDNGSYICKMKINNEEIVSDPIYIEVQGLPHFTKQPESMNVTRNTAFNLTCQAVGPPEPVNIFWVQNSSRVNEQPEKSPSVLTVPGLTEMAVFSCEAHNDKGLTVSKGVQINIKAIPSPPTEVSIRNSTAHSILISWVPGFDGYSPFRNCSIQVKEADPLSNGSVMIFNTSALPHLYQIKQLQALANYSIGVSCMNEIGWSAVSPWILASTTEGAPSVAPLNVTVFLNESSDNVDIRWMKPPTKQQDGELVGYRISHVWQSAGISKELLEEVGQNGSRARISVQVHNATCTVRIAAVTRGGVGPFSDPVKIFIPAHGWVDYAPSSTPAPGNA


Target: T1, human MerTK
Experiment: SPR BIAcore T200, Ab captured, 37C
Protocol: Each humanized mutation variant was subject to BIAcore analysis to determine the important rabbit residues for binding and stability. Binding affinity determinations were obtained using Surface Plasmon Resonance (SRP) measurements from a BIAcore™-T200 instrument. Briefly, each humanized mutation variant antibody was captured to achieve approximately 100 RU (Response Units). Then, 3-fold serial dilutions of human MerTK (0.4 nM to 100 nM) diluted in HBS-EP buffer (0.01M HEPES pH 7.4, 0.15M NaCl, 3 mM EDTA and 0.05% v/v surfactant P20) was injected into the BIAcore™-T200 instrument at 37° C. with a flow rate of 30 μl/min. Association rates (kₒₙ) and dissociation rates (koff) were calculated using a simple one-to-one Langmuir binding model (BIAcore T200 evaluation software version 2.0). The equilibrium dissociation constant (KD) was calculated as the ratio koff/kₒₙ.

Kd | Binder
6.4 nM | h10F7.V1 HC F91Y (antibody, name in Kabat numbering, V domains shown, Framework variant of h10F7.v1 (human IgG1)) VH: EQQLVESGGGLVQPGGSLRLSCAVSGFSLSGYAMSWVRQAPGKGLEYIGVISSSGSSYYPSWAKGRFTISKDSSKNTVYLQMGSLRAEDMAVYYCARVQFYVGYAVYGYGIIDRLDLWGQGTLVTVSS VL: DAVLTQSPDSLAVSLGERATINCQSSKSVYNNNWLSWYQQKPGQPPKLLIYRASTLESGVPDRFSGSGSGTDFTLTISSLQAEDVAVYFCAGGYSSSSSANAFGGGTKVEIK
5.9 nM | h10F7.V1 HC Q2V (antibody, human IgG1, name in Kabat numbering, V domains shown, Framework variant of h10F7.v1 (human IgG1)) VH: EVQLVESGGGLVQPGGSLRLSCAVSGFSLSGYAMSWVRQAPGKGLEYIGVISSSGSSYYPSWAKGRFTISKDSSKNTVYLQMGSLRAEDMAVYFCARVQFYVGYAVYGYGIIDRLDLWGQGTLVTVSS VL: DAVLTQSPDSLAVSLGERATINCQSSKSVYNNNWLSWYQQKPGQPPKLLIYRASTLESGVPDRFSGSGSGTDFTLTISSLQAEDVAVYFCAGGYSSSSSANAFGGGTKVEIK
15.3 nM | h10F7.V1 HC K71R (antibody, human IgG1, name in Kabat numbering, V domains shown, Framework variant of h10F7.v1 (human IgG1)) VH: EQQLVESGGGLVQPGGSLRLSCAVSGFSLSGYAMSWVRQAPGKGLEYIGVISSSGSSYYPSWAKGRFTISRDSSKNTVYLQMGSLRAEDMAVYFCARVQFYVGYAVYGYGIIDRLDLWGQGTLVTVSS VL: DAVLTQSPDSLAVSLGERATINCQSSKSVYNNNWLSWYQQKPGQPPKLLIYRASTLESGVPDRFSGSGSGTDFTLTISSLQAEDVAVYFCAGGYSSSSSANAFGGGTKVEIK
9.3 nM | h10F7.V1 HC I48V (antibody, human IgG1, name in Kabat numbering, V domains shown, Framework variant of h10F7.v1 (human IgG1)) VH: EQQLVESGGGLVQPGGSLRLSCAVSGFSLSGYAMSWVRQAPGKGLEYVGVISSSGSSYYPSWAKGRFTISKDSSKNTVYLQMGSLRAEDMAVYFCARVQFYVGYAVYGYGIIDRLDLWGQGTLVTVSS VL: DAVLTQSPDSLAVSLGERATINCQSSKSVYNNNWLSWYQQKPGQPPKLLIYRASTLESGVPDRFSGSGSGTDFTLTISSLQAEDVAVYFCAGGYSSSSSANAFGGGTKVEIK
5.1 nM | h10F7.V1 HC V78L (antibody, human IgG1, name in Kabat numbering, V domains shown, Framework variant of h10F7.v1 (human IgG1)) VH: EQQLVESGGGLVQPGGSLRLSCAVSGFSLSGYAMSWVRQAPGKGLEYIGVISSSGSSYYPSWAKGRFTISKDSSKNTLYLQMGSLRAEDMAVYFCARVQFYVGYAVYGYGIIDRLDLWGQGTLVTVSS VL: DAVLTQSPDSLAVSLGERATINCQSSKSVYNNNWLSWYQQKPGQPPKLLIYRASTLESGVPDRFSGSGSGTDFTLTISSLQAEDVAVYFCAGGYSSSSSANAFGGGTKVEIK
9.5 nM | h10F7.V1 HC G49S (antibody, human IgG1, name in Kabat numbering, V domains shown, Framework variant of h10F7.v1 (human IgG1)) VH: EQQLVESGGGLVQPGGSLRLSCAVSGFSLSGYAMSWVRQAPGKGLEYISVISSSGSSYYPSWAKGRFTISKDSSKNTVYLQMGSLRAEDMAVYFCARVQFYVGYAVYGYGIIDRLDLWGQGTLVTVSS VL: DAVLTQSPDSLAVSLGERATINCQSSKSVYNNNWLSWYQQKPGQPPKLLIYRASTLESGVPDRFSGSGSGTDFTLTISSLQAEDVAVYFCAGGYSSSSSANAFGGGTKVEIK
9.4 nM | h10F7.V1 HC V24A (antibody, human IgG1, name in Kabat numbering, V domains shown, Framework variant of h10F7.v1 (human IgG1)) VH: EQQLVESGGGLVQPGGSLRLSCAASGFSLSGYAMSWVRQAPGKGLEYIGVISSSGSSYYPSWAKGRFTISKDSSKNTVYLQMGSLRAEDMAVYFCARVQFYVGYAVYGYGIIDRLDLWGQGTLVTVSS VL: DAVLTQSPDSLAVSLGERATINCQSSKSVYNNNWLSWYQQKPGQPPKLLIYRASTLESGVPDRFSGSGSGTDFTLTISSLQAEDVAVYFCAGGYSSSSSANAFGGGTKVEIK
7.6 nM | h10F7.V1 HC S73N (antibody, human IgG1, name in Kabat numbering, V domains shown, Framework variant of h10F7.v1 (human IgG1)) VH: EQQLVESGGGLVQPGGSLRLSCAVSGFSLSGYAMSWVRQAPGKGLEYIGVISSSGSSYYPSWAKGRFTISKDNSKNTVYLQMGSLRAEDMAVYFCARVQFYVGYAVYGYGIIDRLDLWGQGTLVTVSS VL: DAVLTQSPDSLAVSLGERATINCQSSKSVYNNNWLSWYQQKPGQPPKLLIYRASTLESGVPDRFSGSGSGTDFTLTISSLQAEDVAVYFCAGGYSSSSSANAFGGGTKVEIK
4.5 nM | h13B4.V1 HC F91Y (antibody, name in Kabat numbering, V domains shown, Framework variant of h13B4.v1 (human IgG1)) VH: EQQLVESGEGLVQPGGSLRLSCAVSGFSLSSYAMGWVRQAPGKGLEWIGIINSYGNTYYANWAKGRFTISRDSSKNTVYLQMGSLRAEDMAVYYCARDPGVSSNLWGPGTLVTVSS VL: DVQMTQSPSTLSASVGDRVTITCQASQNIYSGLAWYQQKPGKPPKLLIYGASKLASGVPSRFSGSGSGTEFTLTISSLQPDDFATYYCQATYYSSNSVAFGGGTKVEIK
4.6 nM | h13B4.V1 LC P43A (antibody, human IgG1, name in Kabat numbering, V domains shown, Framework variant of h13B4.v1 (human IgG1)) VH: EQQLVESGEGLVQPGGSLRLSCAVSGFSLSSYAMGWVRQAPGKGLEWIGIINSYGNTYYANWAKGRFTISRDSSKNTVYLQMGSLRAEDMAVYFCARDPGVSSNLWGPGTLVTVSS VL: DVQMTQSPSTLSASVGDRVTITCQASQNIYSGLAWYQQKPGKAPKLLIYGASKLASGVPSRFSGSGSGTEFTLTISSLQPDDFATYYCQATYYSSNSVAFGGGTKVEIK
4.7 nM | h13B4.V1 HC S73N (antibody, human IgG1, name in Kabat numbering, V domains shown, Framework variant of h13B4.v1 (human IgG1)) VH: EQQLVESGEGLVQPGGSLRLSCAVSGFSLSSYAMGWVRQAPGKGLEWIGIINSYGNTYYANWAKGRFTISRDNSKNTVYLQMGSLRAEDMAVYFCARDPGVSSNLWGPGTLVTVSS VL: DVQMTQSPSTLSASVGDRVTITCQASQNIYSGLAWYQQKPGKPPKLLIYGASKLASGVPSRFSGSGSGTEFTLTISSLQPDDFATYYCQATYYSSNSVAFGGGTKVEIK
4.5 nM | h13B4.V1 HC Q2V (antibody, human IgG1, name in Kabat numbering, V domains shown, Framework variant of h13B4.v1 (human IgG1)) VH: EVQLVESGEGLVQPGGSLRLSCAVSGFSLSSYAMGWVRQAPGKGLEWIGIINSYGNTYYANWAKGRFTISRDSSKNTVYLQMGSLRAEDMAVYFCARDPGVSSNLWGPGTLVTVSS VL: DVQMTQSPSTLSASVGDRVTITCQASQNIYSGLAWYQQKPGKPPKLLIYGASKLASGVPSRFSGSGSGTEFTLTISSLQPDDFATYYCQATYYSSNSVAFGGGTKVEIK
5.6 nM | h13B4.V1 LC V21 (antibody, human IgG1, V domains shown, Framework variant of h13B4.v1 (human IgG1); read as V2I (V at VL position 2 in v1, I in v16); also called LC V2I) VH: EQQLVESGEGLVQPGGSLRLSCAVSGFSLSSYAMGWVRQAPGKGLEWIGIINSYGNTYYANWAKGRFTISRDSSKNTVYLQMGSLRAEDMAVYFCARDPGVSSNLWGPGTLVTVSS VL: DIQMTQSPSTLSASVGDRVTITCQASQNIYSGLAWYQQKPGKPPKLLIYGASKLASGVPSRFSGSGSGTEFTLTISSLQPDDFATYYCQATYYSSNSVAFGGGTKVEIK
5.8 nM | h13B4.V1 HC I48V (antibody, human IgG1, name in Kabat numbering, V domains shown, Framework variant of h13B4.v1 (human IgG1)) VH: EQQLVESGEGLVQPGGSLRLSCAVSGFSLSSYAMGWVRQAPGKGLEWVGIINSYGNTYYANWAKGRFTISRDSSKNTVYLQMGSLRAEDMAVYFCARDPGVSSNLWGPGTLVTVSS VL: DVQMTQSPSTLSASVGDRVTITCQASQNIYSGLAWYQQKPGKPPKLLIYGASKLASGVPSRFSGSGSGTEFTLTISSLQPDDFATYYCQATYYSSNSVAFGGGTKVEIK
6 nM | h13B4.V1 HC V24A (antibody, human IgG1, name in Kabat numbering, V domains shown, Framework variant of h13B4.v1 (human IgG1)) VH: EQQLVESGEGLVQPGGSLRLSCAASGFSLSSYAMGWVRQAPGKGLEWIGIINSYGNTYYANWAKGRFTISRDSSKNTVYLQMGSLRAEDMAVYFCARDPGVSSNLWGPGTLVTVSS VL: DVQMTQSPSTLSASVGDRVTITCQASQNIYSGLAWYQQKPGKPPKLLIYGASKLASGVPSRFSGSGSGTEFTLTISSLQPDDFATYYCQATYYSSNSVAFGGGTKVEIK
51.5 nM | h13B4.V1 HC G49S (antibody, human IgG1, name in Kabat numbering, V domains shown, Framework variant of h13B4.v1 (human IgG1)) VH: EQQLVESGEGLVQPGGSLRLSCAVSGFSLSSYAMGWVRQAPGKGLEWISIINSYGNTYYANWAKGRFTISRDSSKNTVYLQMGSLRAEDMAVYFCARDPGVSSNLWGPGTLVTVSS VL: DVQMTQSPSTLSASVGDRVTITCQASQNIYSGLAWYQQKPGKPPKLLIYGASKLASGVPSRFSGSGSGTEFTLTISSLQPDDFATYYCQATYYSSNSVAFGGGTKVEIK
9.2 nM | h13B4.V1 HC V78L (antibody, human IgG1, name in Kabat numbering, V domains shown, Framework variant of h13B4.v1 (human IgG1)) VH: EQQLVESGEGLVQPGGSLRLSCAVSGFSLSSYAMGWVRQAPGKGLEWIGIINSYGNTYYANWAKGRFTISRDSSKNTLYLQMGSLRAEDMAVYFCARDPGVSSNLWGPGTLVTVSS VL: DVQMTQSPSTLSASVGDRVTITCQASQNIYSGLAWYQQKPGKPPKLLIYGASKLASGVPSRFSGSGSGTEFTLTISSLQPDDFATYYCQATYYSSNSVAFGGGTKVEIK
4.2 nM | h13B4.V1 HC P105R (antibody, name in Kabat numbering, V domains shown, Framework variant of h13B4.v1 (human IgG1)) VH: EQQLVESGEGLVQPGGSLRLSCAVSGFSLSSYAMGWVRQAPGKGLEWIGIINSYGNTYYANWAKGRFTISRDSSKNTVYLQMGSLRAEDMAVYFCARDPGVSSNLWGRGTLVTVSS VL: DVQMTQSPSTLSASVGDRVTITCQASQNIYSGLAWYQQKPGKPPKLLIYGASKLASGVPSRFSGSGSGTEFTLTISSLQPDDFATYYCQATYYSSNSVAFGGGTKVEIK
3.1 nM | h13B4.V1 HC W47Y (antibody, human IgG1, name in Kabat numbering, V domains shown, Framework variant of h13B4.v1 (human IgG1)) VH: EQQLVESGEGLVQPGGSLRLSCAVSGFSLSSYAMGWVRQAPGKGLEYIGIINSYGNTYYANWAKGRFTISRDSSKNTVYLQMGSLRAEDMAVYFCARDPGVSSNLWGPGTLVTVSS VL: DVQMTQSPSTLSASVGDRVTITCQASQNIYSGLAWYQQKPGKPPKLLIYGASKLASGVPSRFSGSGSGTEFTLTISSLQPDDFATYYCQATYYSSNSVAFGGGTKVEIK
